Measured values as given in patent EP4806514A2 (Lepu Biopharma Co., Ltd., dated 2025).

Target: T1, rat CDH17-his (Sino bio, Cat. No. 80283-R08H) (rat, UniProt P55281 22-786)
T1 construct: Bought; also called rat CDH17 protein
T1 sequence (looked up): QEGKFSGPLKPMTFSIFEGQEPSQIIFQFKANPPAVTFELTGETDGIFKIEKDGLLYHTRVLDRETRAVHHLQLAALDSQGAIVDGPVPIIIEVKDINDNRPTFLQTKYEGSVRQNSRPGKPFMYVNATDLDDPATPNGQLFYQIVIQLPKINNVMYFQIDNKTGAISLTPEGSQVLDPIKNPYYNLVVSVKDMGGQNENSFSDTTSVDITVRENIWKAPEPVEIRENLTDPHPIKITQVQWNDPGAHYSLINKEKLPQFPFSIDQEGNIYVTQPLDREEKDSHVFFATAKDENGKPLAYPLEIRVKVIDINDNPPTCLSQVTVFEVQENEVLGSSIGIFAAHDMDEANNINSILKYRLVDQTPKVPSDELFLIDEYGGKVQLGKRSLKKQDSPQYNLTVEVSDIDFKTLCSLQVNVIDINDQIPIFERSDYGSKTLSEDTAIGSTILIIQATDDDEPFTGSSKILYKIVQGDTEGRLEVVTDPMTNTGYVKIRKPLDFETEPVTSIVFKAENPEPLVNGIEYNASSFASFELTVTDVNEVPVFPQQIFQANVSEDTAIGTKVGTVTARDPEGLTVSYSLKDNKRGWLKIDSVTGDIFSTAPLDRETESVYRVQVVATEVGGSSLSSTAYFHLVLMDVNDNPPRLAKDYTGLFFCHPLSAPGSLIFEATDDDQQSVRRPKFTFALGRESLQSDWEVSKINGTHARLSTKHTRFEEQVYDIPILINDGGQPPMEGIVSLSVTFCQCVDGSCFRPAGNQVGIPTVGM
Test: ELISA, antigen coated at 1 ug/mL

B1: 29H8D3-z12 (antibody, V domains shown)
VH: QVQLVQSGAEVKKPGASVKVSCKASGYTFTDHTIHWMRQRPGQGLEWIGYIYPRDGYTKYNEKFKDRATLTADTSTSTAYMELRSLRSDDTAVYYCARFYYGYWYFDVWGQGTTVTVSS
VL: DIVMTQSPLSLPVTPGEPASISCRSSKSLLRSNGNTYLYWFLQKPGQSPQVLIYRMSNLASGVPDRFSGSGSGTDFTLKISRVEAEDVGVYYCMQHLEYPFTFGQGTKLEIK
notes: Humanized, human IgG1 constant region; also called 29H8D3-z12 mAb
  binding result: no binding (tested: titrated from 50 nM)
